assay: yeast display, Sf9 membrane polyspecificity reagent, FACS + sequencing; frameworks hold sequencing errors
How it was run: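 Nanobodies came from a synthetic yeast display library in Saccharomyces cerevisiae BJ5465, induced with galactose for 36–48 hours and stained for 1 hour at 4 °C with 10% biotinylated, detergent-solubilized Sf9 membrane reagent. Cells were enriched on streptavidin microbeads and then FACS-sorted, with low and high (top ~1%) gates set on anti-HA fluorescence for expression and streptavidin fluorescence for reagent binding. Each polyreactivity label reflects the gate a clone came from. Genes were amplified by colony PCR, sequenced by MiSeq 2 × 250 and filtered by CDR length.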

Which “polyreactivity (PSR sort gate)” value does the source give for “QVQLVESGGGLVQAGGSLRLSCAASGRTFFKYAMGWYRQEPGKERELVASISRTGGGSTYYADSVKGRFTISRDNAKNTVYLQMNSLQPEDTAVYYCNKYTYRGRTGEFNYWGQGTQVNVSS” here?
Its value is “high polyreactivity”.

For “QVQLVESGGGLVQAGGSLRLSCAASGRTFFLYAMGWYRQAPGKEREFVATISYGGGSTYYADSVKGRFTISRDNAKNTVYLQMNSLKPDDTAVYYCNALNTSQYAEGTSDYDGNMGYWGQGTQVTVSS”, which “polyreactivity (PSR sort gate)” value is on record?
Its value is “low polyreactivity”.

Which “polyreactivity (PSR sort gate)” value does the source give for “QVQLVESGGGLVQAGGSLRLSCAASGRTFFLYTIGWYRQAPGKEREFVAAITTIGGSTYYADSVKGRFTISRDNAKNTVSLQMHSLKPEDTAVYYCNARVGPELHDYWGQGTQVTVSS” here?
Its value is “low polyreactivity”.

For “QVQLVESGGGLVQAGGSLRLSCAASGRTFFNYAMGWYRQAPGKERELVAAISFSDGSTYYADSVKGRFTISRDNAKNTVYLQMNSLKPEDTADYYCAAQPGRRAGRSGFDYWGQGTQVTVSS”, which “polyreactivity (PSR sort gate)” value is on record?
Its value is “high polyreactivity”.

For “QVQLVESGGGLVQAGGSLRLSCAASGRTFFPNAMGWYRQAPGKERELVAAISSGGGGTYYADSVKGRFTISRDNAKNTVYLQMISLKPEDTAVYYCAARNSKVEEEGNYWGQGTQVTVSS”, which “polyreactivity (PSR sort gate)” value is on record?
Its value is “low polyreactivity”.

For “QVQLVESGGGLVQAGGSLRLSCAASGRTFFPYAMGWYRQAPGKEREFVAAITKTDDSTYYADSVKGRFTISRDNAKNTVYLQMNSLKPEDTAVYYCAADTSRSVSVFIVWYWLGYWGQGTQVTVSS”, which “polyreactivity (PSR sort gate)” value is on record?
The value was “low polyreactivity”.

With “QVQLVESGGGLVQAGGSLRLSCAASGRTFFPYAMGWYRQAPGKEREFVAAITKTDDTTYYADSVKGRFTISRDNAKNTVYLQMNSLKPEDTAVYYCNAGDTQIRFYYWGQGTQVNVSS” as the sequence, how does the “polyreactivity (PSR sort gate)” value read?
The value was “low polyreactivity”.

Which “polyreactivity (PSR sort gate)” value does the source give for “QVQLVESGGGLVQAGGSLRLSCAASGRTFFQYAMGWYRQAPGKERELVAAIRWSDSTYYADSVKGRFTISRDNAKNTVYLQMNSLKPEDTAVYYCAAPRVSQYSTKKYDYWGQGTQVTVSS” here?
The value was “low polyreactivity”.

With “QVQLVESGGGLVQAGGSLRLSCAASGRTFFQYAMGWYRQAPGKERELVATIRSGGSTYYADSVKGRFTISRDNAKNTVYLQMNSLKPEDTAVYYCATRYTRFRHFDYWGQGTQVTVSS” as the sequence, how does the “polyreactivity (PSR sort gate)” value read?
The value was “low polyreactivity”.

For “QVQLVESGGGLVQAGGSLRLSCAASGRTFFRNTMGWYRQAPGKERELVATISSSGGSTYYADSVKGRFTISRDNAKNTVYLQMNSLKPEDTAVYYCAAAPSKWYYGYGYWGQGTQVTVSS”, which “polyreactivity (PSR sort gate)” value is on record?
Its value is “high polyreactivity”.

Which “polyreactivity (PSR sort gate)” value does the source give for “QVQLVESGGGLVQAGGSLRLSCAASGRTFFRYAMGWYRQAPGKERELVAVITRGGSTYYADSVKGRFTISRDNAKNTVYLQMNSLKPEDTAVYYCNADGRVQRKYDYWGQGTQVTVSS” here?
The value was “high polyreactivity”.

With “QVQLVESGGGLVQAGGSLRLSCAASGRTFFSNAMGWYRQAPGKERELVAAISNGDNTYYADSVKGRFTISRDNAKNTVYLQMNSLKPEDTAVYYCAKDYRWVWRKYGYWGQGTQVTVSS” as the sequence, how does the “polyreactivity (PSR sort gate)” value read?
Its value is “low polyreactivity”.

For “QVQLVESGGGLVQAGGSLRLSCAASGRTFFSYTMGWYRQAPGKERELVAAISDSDGRTYYADSVKGRFTISRDNAKNTVYLQMNSLKPEDTAVYYCAAVPDKYWSRVRRYLFEHNYWGQGTQVTVSS”, which “polyreactivity (PSR sort gate)” value is on record?
Its value is “low polyreactivity”.

For “QVQLVESGGGLVQAGGSLRLSCAASGRTFFTNALGGYRQAPGKVRELVASINSGGNTTYADSVKGRFTISRDNAKNTVYLQINSLKPEDTAVSYCAAVRSAQRWRRYYYGGQGTQVTVSS”, which “polyreactivity (PSR sort gate)” value is on record?
The value was “low polyreactivity”.

For “QVQLVESGGGLVQAGGSLRLSCAASGRTFFYAMGWYRQAPGKEREFVAAISWSGGSTYYADSVKGRFTISRDNAKNTVYLQMNSLKPEDTAVYYCYKVGYYGVGTSKEFDYWGQGTQVTVSS”, which “polyreactivity (PSR sort gate)” value is on record?
The value was “high polyreactivity”.

Which “polyreactivity (PSR sort gate)” value does the source give for “QVQLVESGGGLVQAGGSLRLSCAASGRTFFYNAMGWYRQAPGKERELVAAISKNGGNTYYADSVKGRFTISRDNAKNTVYLQMNSLKPEDTAVYYCAARQSRTGPDRNDYWGQGTQVTVSS” here?
The value was “high polyreactivity”.

For “QVQLVESGGGLVQAGGSLRLSCAASGRTFFYYAMGWYRQAPGKERELVAAISTGGSTNYADSVKGRFTISRDNAKNTVYLQMNSLKPEDTAVYYCNADYDKGVRFNFNASFGEFDYWGQGTQVTVSS”, which “polyreactivity (PSR sort gate)” value is on record?
Its value is “low polyreactivity”.

Which “polyreactivity (PSR sort gate)” value does the source give for “QVQLVESGGGLVQAGGSLRLSCAASGRTFGDKAMGWYRQAPGKERELVAAISWSGGRTYYADSVKGRFTISRDNAKNTVYLQMNSLKPEDTAVYYCAARNNRYPLYNYWGQGTQVTVSS” here?
The value was “low polyreactivity”.

For “QVQLVESGGGLVQAGGSLRLSCAASGRTFGDNAMGWYRQAPGKERELVAAISSGDSTNYADSVKGRFTISRDNAKNTVYLQMNSLKPEDTAVYYCAAEFSHTYVYVDLDYWGQGTQVTVSS”, which “polyreactivity (PSR sort gate)” value is on record?
Its value is “low polyreactivity”.

Which “polyreactivity (PSR sort gate)” value does the source give for “QVQLVESGGGLVQAGGSLRLSCAASGRTFGDNAMGWYRQAPWKERELVAAISRSGRTYYADSVKGRFTISRDNAKNTVYLQMNSLKPEYTAVYYCNTPYAHYVTHGLDYWGQGTQVTVSS” here?
The value was “high polyreactivity”.

With “QVQLVESGGGLVQAGGSLRLSCAASGRTFGEYTMGWYRQAPGKERELVAAISSAGRTNYADSVKGRFTISRDNAKNTVYLQMNSLKPEDTAVYYCAKTAERLHYGVYRFDYWGQGTQVTVSS” as the sequence, how does the “polyreactivity (PSR sort gate)” value read?
Its value is “low polyreactivity”.

Which “polyreactivity (PSR sort gate)” value does the source give for “QVQLVESGGGLVQAGGSLRLSCAASGRTFGFYAMGWDRQAPGKERELVAVITWSVTSTYYADSVKGRFTISRDNAKNTVYLQMNSLKPEDTAVYYCAAEYVVGASSVRDSLDYGYWGQGTQVTVSS” here?
The value was “high polyreactivity”.

With “QVQLVESGGGLVQAGGSLRLSCAASGRTFGFYAMGWYRQAPGKERELVAGINNRGSGTYYADSVKGRFTISRDNAKNTVYLLMNSLKPEDTAVYYCAAGRRAKSRTWVNIRYDYWGQGTQVTVST” as the sequence, how does the “polyreactivity (PSR sort gate)” value read?
The value was “high polyreactivity”.

For “QVQLVESGGGLVQAGGSLRLSCAASGRTFGFYAMGWYRQAPGKERELVATISSSGGSTYYADSVKGRYTISRDNAKNTVYIQMNSLKPEDTAVYYCAKVVSGWRSHYIGDYWGQGTQVTVSS”, which “polyreactivity (PSR sort gate)” value is on record?
The value was “low polyreactivity”.

For “QVQLVESGGGLVQAGGSLRLSCAASGRTFGGNAIGWYRQAPGKERELVAAISSGARTNYADSVKGRFTISRDNAKNTVYLQMNSLKPEDNAVYYCAAGYPYSYRDYYYWVQGTQVTVSS”, which “polyreactivity (PSR sort gate)” value is on record?
Its value is “high polyreactivity”.

With “QVQLVESGGGLVQAGGSLRLSCAASGRTFGGNAMGWYRQAPGKERELVAAISLSGGTTYYADSVKGRFTISRDNAKNTVYLQMNSLKPEDTAVYYCAADTAGYYDEDKDGDYWGQGTQVTVSS” as the sequence, how does the “polyreactivity (PSR sort gate)” value read?
The value was “low polyreactivity”.

For “QVQLVESGGGLVQAGGSLRLSCAASGRTFGGYAMGWYRQAPGKERELVAAITWRGGRTFYADSVKGRFTISRDNAKNTVYLQMNSLKPEDTAVYYCNVVKYGPRYDYWGQGTQVTVSS”, which “polyreactivity (PSR sort gate)” value is on record?
The value was “high polyreactivity”.

With “QVQLVESGGGLVQAGGSLRLSCAASGRTFGGYTMGWYRQAPGKERELVAAINWSGTTYYADSVKGRFTISRDNAKNTVYLQMNSLIPEDTAVYYCAASLVSYYGLARDSVDYWGQGTQVNVSS” as the sequence, how does the “polyreactivity (PSR sort gate)” value read?
Its value is “low polyreactivity”.

For “QVQLVESGGGLVQAGGSLRLSCAASGRTFGHNAMGWYRQAPGKERELVAAISASGSNTYYADSVKGRFTISRDNAKNTVYLQMNSLKPEDTAVYYCAKQVYRPGQQSRYDYWGQGTQVTVSS”, which “polyreactivity (PSR sort gate)” value is on record?
The value was “low polyreactivity”.

With “QVQLVESGGGLVQAGGSLRLSCAASGRTFGIYAMGWYRQAPGKERELVAAITGRGGSTHYADSVKGRFTISRDNAKNTVYLQMNSLKPEDTAVYYCAADYRYNRGITSNKDYDYWGQGTQVTVSS” as the sequence, how does the “polyreactivity (PSR sort gate)” value read?
The value was “low polyreactivity”.
